Measured values published in patent US20250000904A1.

How the values were obtained:
Assay in all cases: cell-based or functional assay
[1] = target: TGFβR2-IL12Rβ signaling redirector receptor
[2] = target: TGFβR2-IL21Rβ signaling redirector receptor
[3] = target: TGFβR2-IL2Rβ signaling redirector receptor

Measured: increase in tumor cell numbers over base input after three rounds of restimulation, with recombinant TGFβ

Sequence of TGFβR2-IL12Rβ signaling redirector receptor (main, as listed by the source): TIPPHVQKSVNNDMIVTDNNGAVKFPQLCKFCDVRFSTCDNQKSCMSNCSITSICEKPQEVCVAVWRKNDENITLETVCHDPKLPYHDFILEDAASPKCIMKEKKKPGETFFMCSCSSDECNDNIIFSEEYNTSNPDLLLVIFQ
Sequence of TGFβR2-IL2Rβ signaling redirector receptor (chain, as listed by the source): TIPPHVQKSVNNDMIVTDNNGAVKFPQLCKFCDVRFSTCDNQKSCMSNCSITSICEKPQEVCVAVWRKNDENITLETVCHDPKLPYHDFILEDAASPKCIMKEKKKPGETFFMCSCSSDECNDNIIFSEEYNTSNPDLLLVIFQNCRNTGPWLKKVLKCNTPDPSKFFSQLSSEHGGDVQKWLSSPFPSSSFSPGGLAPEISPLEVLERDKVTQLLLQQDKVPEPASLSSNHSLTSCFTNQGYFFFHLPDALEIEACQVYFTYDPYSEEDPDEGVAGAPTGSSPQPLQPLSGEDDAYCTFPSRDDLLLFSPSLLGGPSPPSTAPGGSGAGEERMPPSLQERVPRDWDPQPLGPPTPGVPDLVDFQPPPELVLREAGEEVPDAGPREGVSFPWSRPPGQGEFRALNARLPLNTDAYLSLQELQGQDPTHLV
Sequence of TGFβR2-IL21Rβ signaling redirector receptor (chain, as listed by the source): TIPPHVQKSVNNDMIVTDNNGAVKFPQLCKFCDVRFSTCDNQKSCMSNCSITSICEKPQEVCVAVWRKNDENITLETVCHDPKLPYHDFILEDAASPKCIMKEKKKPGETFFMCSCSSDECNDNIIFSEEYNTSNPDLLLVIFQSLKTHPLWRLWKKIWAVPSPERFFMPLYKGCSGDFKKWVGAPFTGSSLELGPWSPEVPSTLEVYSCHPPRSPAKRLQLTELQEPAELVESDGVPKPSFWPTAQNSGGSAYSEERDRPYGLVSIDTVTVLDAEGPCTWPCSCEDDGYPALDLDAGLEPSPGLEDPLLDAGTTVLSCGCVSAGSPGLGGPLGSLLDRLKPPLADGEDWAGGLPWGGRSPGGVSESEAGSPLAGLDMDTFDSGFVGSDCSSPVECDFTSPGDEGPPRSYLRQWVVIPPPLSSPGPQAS

recombinant TGFβ (ligand)
1.5 fold: all assays above
